From the supplement of paper PMC10567573

B1: FCHO1 (parent)
chain: FSDPSQSDPETKDFWLNMAALTEA
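Further: lentivirally expressed fusions sorted by FACS into six bins by GFP to DsRed ratio, PSI derived from sequencing read proportions per bin multiplied by bin number.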

Variants of: B1
Experiment: protein stability index of a GFP-peptide fusion (GPS, HEK-293T) (PSI 1-6); higher = more stable
Conditions: c terminus: a fixed tail appended
With FSDPSQSDPETKDFWLNMAALNEA the protein stability index was 2.93. Variant FSDPSQSDPETKDFWLNMAALHEA has a protein stability index of 3. FSDPSQSDPETKDFWLNMAALAEA gave a protein stability index of 2.87. Variant FSDPSQSDPETKDFWLNMAALMEA has a protein stability index of 3.02. FSDPSQSDPETKDFWLNMAALCEA gave a protein stability index of 3.09. For FSDPSQSDPETKDFWLNMAALPEA, the protein stability index was 2.34. FSDPSQSDPETKDFWLNMAALFEA showed a protein stability index of 3.23. With FSDPSQSDPETKDFWLNMAALIEA the protein stability index was 2.86. FSDPSQSDPETKDFWLNMAALLEA gave a protein stability index of 2.82. For FSDPSQSDPETKDFWLNMARLTEA, the protein stability index was 2.81. FSDPSQSDPETKDFWLNMAVLTEA gave a protein stability index of 2.19. With FSDPSQSDPETKDFWLNMATLTEA the protein stability index was 2.71. Work on FSDPSQSDPETKDFWLNMAELTEA yielded a protein stability index of 3.61. Work on FSDPSQSDPETKDFWLNMAMLTEA yielded a protein stability index of 2.85. Work on FSDPSQSDPETKDFWLNMAYLTEA yielded a protein stability index of 2.44. With FSDPSQSDPETKDFWLNMACLTEA the protein stability index was 2.34. FSDPSQSDPETKDFWLNMAPLTEA showed a protein stability index of 2.96. Variant FSDPSQSDPETKDFWLNMAKLTEA has a protein stability index of 2.63. Variant FSDPSQSDPETKDFWLNMAQLTEA has a protein stability index of 2.63. Variant FSDPSQSDPETKDFWLNMAWLTEA has a protein stability index of 2.16. For FSDPSQSDPETKDFWLNMAFLTEA, the protein stability index was 2.24. In the case of FSDPSQSDPETKDFWLNMADLTEA, the protein stability index is reported as 3.25. With FSDPSQSDPETKDFWLNMAILTEA the protein stability index was 2.38. For FSDPSQSDPETKDFWLNMALLTEA, the protein stability index was 2.31. For FSDPSQSDPETKDFWLNMAHLTEA, the protein stability index was 2.82. FSDPSQSDPETKDFWLNMAGLTEA gave a protein stability index of 2.65. FSDPSQSDPETKDFWLNMASLTEA gave a protein stability index of 2.94. FSDPSQSDPETKDFWLNMANLTEA gave a protein stability index of 2.86. In the case of FSDPSQSDPETKDFWLSMAALTEA, the protein stability index is reported as 2.49. FSDPSQSDPETKDFWLQMAALTEA showed a protein stability index of 3.39. In the case of FSDPSQSDPETKDFWLMMAALTEA, the protein stability index is reported as 2.73. FSDPSQSDPETKDFWLRMAALTEA showed a protein stability index of 3.06. Variant FSDPSQSDPETKDFWLYMAALTEA has a protein stability index of 2.8. Work on FSDPSQSDPETKDFWLVMAALTEA yielded a protein stability index of 1.88. In the case of FSDPSQSDPETKDFWLPMAALTEA, the protein stability index is reported as 1.94. Work on FSDPSQSDPETKDFWLTMAALTEA yielded a protein stability index of 3.03. FSDPSQSDPETKDFWLWMAALTEA gave a protein stability index of 2.49. In the case of FSDPSQSDPETKDFWLNMAALTCA, the protein stability index is reported as 1.63. FSDPSQSDPETKDFWLNMAALTAA gave a protein stability index of 2.15. With FSDPSQSDPETKDFWLNMAALTMA the protein stability index was 2.08. With FSDPSQSDPETKDFWLNMAALTSA the protein stability index was 2.23. FSDPSQSDPETKDFWLNMAALTNA gave a protein stability index of 2.58. FSDPSQSDPETKDFWLNMAALTFA gave a protein stability index of 1.59. For FSDPSQSDPETKDFWLNMAALTDA, the protein stability index was 2.75. In the case of FSDPSQSDPETKDFWLNMAALTHA, the protein stability index is reported as 2.17. Work on FSDPSQSDPETKDFWLNMAALTWA yielded a protein stability index of 2.04. Work on FSDPSQSDPETKDFWLNMAALTRA yielded a protein stability index of 3.31. FSDPSQSDPETKDFWLNMAALTVA gave a protein stability index of 2.24. For FSDPSQSDPETKDFWLNMAALTGA, the protein stability index was 2.61. In the case of FSDPSQSDPETKDFWLNMAALTPA, the protein stability index is reported as 2.33. FSDPSQSDPETKDFWLNMAALTKA gave a protein stability index of 2.3. Variant FSDPSQSDPETKDFWLNMAALTTA has a protein stability index of 2.79. Variant FSDPSQSDPETKDFWLNMAALTQA has a protein stability index of 2.86. FSDPSQSDPETKDFWLNMAALTIA showed a protein stability index of 1.9. Variant FSDPSQSDPETKDFWLNMAALTYA has a protein stability index of 2.1. In the case of FSDPSQSDPETKDFWLNMAALTLA, the protein stability index is reported as 2.3. Work on FSDPSQSDPETKDFWLNQAALTEA yielded a protein stability index of 3.77. With FSDPSQSDPETKDFWLNSAALTEA the protein stability index was 3.12. In the case of FSDPSQSDPETKDFWLNKAALTEA, the protein stability index is reported as 2.91. Work on FSDPSQSDPETKDFWLNCAALTEA yielded a protein stability index of 2.78. FSDPSQSDPETKDFWLNTAALTEA gave a protein stability index of 2.62. For FSDPSQSDPETKDFWLNVAALTEA, the protein stability index was 2.56. Variant FSDPSQSDPETKDFWLNEAALTEA has a protein stability index of 3.98. With FSDPSQSDPETKDFWLNAAALTEA the protein stability index was 3.02. FSDPSQSDPETKDFWLNFAALTEA showed a protein stability index of 2.78. For FSDPSQSDPETKDFWLNIAALTEA, the protein stability index was 2.37. FSDPSQSDPETKDFWLNGAALTEA showed a protein stability index of 3.27. Work on FSDPSQSDPETKDFWLNNAALTEA yielded a protein stability index of 3.55. Variant FSDPSQSDPETKDFWLNHAALTEA has a protein stability index of 3.22. In the case of FSDPSQSDPETKDFWLNPAALTEA, the protein stability index is reported as 3.53. In the case of FSDPSQSDPETKDFWLNDAALTEA, the protein stability index is reported as 4.25. Variant FSDPSQSDPETKDFWLNYAALTEA has a protein stability index of 3.59. Variant FSDPSQSDPETKDFWLNWAALTEA has a protein stability index of 3.18. In the case of FSDPSQSDPETKDFWLNLAALTEA, the protein stability index is reported as 2.57. Work on FSDPSQSDPETKDFWLNRAALTEA yielded a protein stability index of 3.11. FSDPSQSDPETKDFWLNMAALTEP showed a protein stability index of 2.06. FSDPSQSDPETKDFWLNMAALTEH showed a protein stability index of 2.89. With FSDPSQSDPETKDFWLNMAALTEF the protein stability index was 2.56. Work on FSDPSQSDPETKDFWLNMAALTEV yielded a protein stability index of 1.82. Variant FSDPSQSDPETKDFWLNMAALTET has a protein stability index of 2.52. FSDPSQSDPETKDFWLNMAALTEK showed a protein stability index of 3.38. For FSDPSQSDPETKDFWLNMAALTEI, the protein stability index was 1.92. FSDPSQSDPETKDFWLNMAALTEW gave a protein stability index of 2.8. Variant FSDPSQSDPETKDFWLNMAALTEC has a protein stability index of 2.36. With FSDPSQSDPETKDFWLNMAALTEL the protein stability index was 2.67. Variant FSDPSQSDPETKDFWLNMAALTEQ has a protein stability index of 3.27. FSDPSQSDPETKDFWLNMAALTEN showed a protein stability index of 3.23. For FSDPSQSDPETKDFWLNMAALTED, the protein stability index was 2.8. Variant FSDPSQSDPETKDFWLNMAALTER has a protein stability index of 3.38. With FSDPSQSDPETKDFWLNMAALTEY the protein stability index was 2.29. With FSDPSQSDPETKDFWLNMAALTEE the protein stability index was 3.3. FSDPSQSDPETKDFWLNMAALTES gave a protein stability index of 3.4. FSDPSQSDPETKDFWLNMAALTEG gave a protein stability index of 2.5. In the case of FSDPSQSDPETKDFWLNMAALTEM, the protein stability index is reported as 2.62.
